Consider 2 molecules from patent US20200231681A1 (CHONG KUN DANG PHARMACEUTICAL, published 2020).

Assay [1] has as its target T1, human c-Met ECD (ACROBiosystems, MET-H5227) (human, UniProt P08581 25-932).
T1 construct: extracellular domain; Bought protein
Nature of the assay: SPR (BIAcore), antibody captured by anti-human IgG Fc, antigen as analyte, 1:1 Langmuir. The protocol:
(§1) The antibodies were diluted in HBS-EP buffer (0.01 M HEPES pH 7.4, 0.15 M NaCl, 3 mM EDTA and 0.005% (v/v) Surfactant P20) at a concentration of 1-2 μg/ml, after which the resulting antibodies were injected into a CM5 chip with an anti-human Ig Fc fixed thereto at a flow rate of 30 μl/min for 10-120 seconds, and then captured in a range of 150-200 RU. Each antigen was used after being diluted at 10, 5, 2.5, 1.25, 0.625, 0.3125 and 0.15625 nM, after which the resulting antigens were sequentially injected from a lower concentration. Then, the resulting antigens were injected at a flow rate of 30 μl/min for 5 minutes to carry out binding, after which a running buffer was injected thereinto for 10-15 minutes to carry out a dissociation. 15 μl of 10 mM Glycine-HCl (pH 1.5) was used to revive the chip.

Assay [2] has as its target T2, cynomolgus monkey c-Met ECD (SiNo. Biological, 90304-CO8H) (cynomolgus monkey, UniProt A0A2K5UM36 25-932).
T2 construct: not shown: The vendor's tag
The description is as above. On the procedure: as §1

Assay [3] concerns the target T3, human EGFR ECD strep (ACROBiosystems, EGR-H5285) (human, UniProt P00533 25-645).
T3 construct: extracellular domain; Bought protein
Described as above. On the procedure: as §1

In assay [4] the target is T4, cynomolgus monkey EGFR ECD (SiNo. Biological, 90285-008B) (cynomolgus monkey).
T4 construct: extracellular domain
Described as above. The protocol:
as §1

The target in assay [5] is T5, mouse EGFR (SiNo. Biological Inc, 51091-M08H) (mouse, UniProt Q01279 25-647).
T5 construct: extracellular domain
Briefly: ELISA, antigen coated at 2 µg/ml, antibody 6.4 pM to 100 nM, anti-human IgG F(ab')2-HRP, TMB, O.D. at 450 nm [panel Mouse EGFR]. On the procedure:
(§2) Particularly, mouse c-Met (SiNo. Biological Inc, 50622-M08H), cynomolgus monkey c-Met (SiNo. Biological Inc, 90304-CO8H), human c-Met (R&D Systems, 358-MT), mouse EGFR (SiNo. Biological Inc, 51091-M08H), cynomolgus monkey EGFR (SiNo. Biological, 90285-008B) and human EGFR (Abcam, 155639) antigens were all divided into a 96-well plate at a concentration of 2 μg/ml, after which the resulting plate was reacted at 4° C. overnight.
(§3) Color development was made by using TMB (Sigma, T4444) solution, wherein its value was measured at an optical density of 450 nm and its ELISA results are shown in FIG. 9.

In assay [6] the target is T6, mouse c-Met (SiNo. Biological Inc, 50622-M08H) (mouse, UniProt P16056 25-931).
T6 construct: extracellular domain
Briefly: ELISA, antigen coated at 2 µg/ml, antibody 6.4 pM to 100 nM, anti-human IgG F(ab')2-HRP, TMB, O.D. at 450 nm [panel Mouse cMet]. On the procedure:
as §2, §3

B1: hu8C4 AH71 (antibody, V domains shown)
VH: EVQLVESGGGLVQPGGSLRLSCAASGYTFSDYYINWVRQAPGKGLEWIGEIFPGWGNTHFSARFKGRATLSADKSKNTAYLQMNSLRAEDTAVYYCAGQDYGFLYWGQGTLVTVSS
VL: DIQMTQSPSSLSASVGDRVTITCGASENIYGALNWYQQKPGKAPKLLIYGATNLADGVPSRFSGSGSGRDFTFTISSLQPEDIATYYCQNVLSSPYTFGQGTKVEIK
In general, Kd refers to the constant that tells how readily two partners part at equilibrium. The koff is the first-order rate constant of dissociation. The kon is a measure of how fast the partners come together. With B1, in assay [1], the dissociation constant Kd is 0.0999 nM, the dissociation rate constant (koff) is 8.3e-05 s⁻¹ and the kon amounted to 831000 M⁻¹ s⁻¹.

B2: hu8C4 × Vectibix scFv bispecific antibody (bispecific antibody, human IgG2)
heavy: not shown
VL: DIQMTQSPSSLSASVGDRVTITCGASENIYGALNWYQQKPGKAPKLLIYGATNLADGVPSRFSGSGSGRDFTFTISSLQPEDIATYYCQNVLSSPYTFGQGTKVEIK
As to B2, the dissociation constant (Kd) in assay [1] worked out at 0.278 nM; in assay [2], 0.434 nM; in assay [3], 1.62 nM; in assay [4], 0.894 nM. The koff in assay [1] is 0.000204 s⁻¹; in assay [2], 0.000337 s⁻¹; in assay [3] it was 0.000126 s⁻¹; in assay [4], 0.000127 s⁻¹. Besides, the on-rate constant (kon) in assay [1] was found to be 734000 M⁻¹ s⁻¹; in assay [2], 777000 M⁻¹ s⁻¹; in assay [3], 77800 M⁻¹ s⁻¹; in assay [4], 142000 M⁻¹ s⁻¹. Moreover, the binding result in assay [5] and in assay [6] was “no binding (tested: 100 nM)” in each case.
